# In publication PMC7435863, “Single Residue Substitution at N-Terminal Affects Temperature Stability and Activity of L2 Lipase” (Molecules, 2020):
# Substrate: CCCCCCCCCC(=O)Oc1ccc([N+](=O)[O-])cc1
# Assay: pNP ester hydrolysis, Lineweaver-Burk
# Type: biochemical, Bacillus sp. L2
# Settings: 70 °C (optimum temperature), 0.6-5.0 mM substrate
# Text: pNP ester hydrolysis, Lineweaver-Burk on wt-L2 lipase
Protein,Km [µM],kcat [s⁻¹],kcat/Km [M⁻¹ s⁻¹],Vmax [µM/min]
"wt-L2 lipase (Bacillus sp. L2) (protein, recombinant from pET32(B)+ in E. coli BL21(DE3), Ni Sepharose purified) ASLRANDAPIVLLHGFTGWGREEMFGFKYWGGVRGDIEQWLNDNGYRTYTLAVGPLSSNWDRACEAYAQLVGGTVDYGAAHAAKHGHARFGRTYPGLLPELKRGGRIHIIAHSQGGQTARMLVSLLENGSQEEREYAKAHNVSLSPLFEGGHHFVLSVTTIATPHDGTTLVNMVDFTDRFFDLQKAVLEAAAVASNVPYTSQVYDFKLDQWGLRRQPGESFDHYFERLKRSPVWTSTDTARYDLSVSGAEKLNQWVQASPNTYYLSFSTERTYRGALTGNHYPELGMNAFSAVVCAPFLGSYRNPTLGIDDRWLENDGIVNTVSMNGPKRGSSDRIVPYDGTLKKGVWNDMGTYNVDHLEIIGVDPNPSFDIRAFYLRLAEQLASLLP",1080,175,162000,
"wt-L2 lipase (Bacillus sp. L2; A36E) (protein, recombinant from pET32(B)+ in E. coli BL21(DE3), Ni Sepharose purified) ASLRANDEPIVLLHGFTGWGREEMFGFKYWGGVRGDIEQWLNDNGYRTYTLAVGPLSSNWDRACEAYAQLVGGTVDYGAAHAAKHGHARFGRTYPGLLPELKRGGRIHIIAHSQGGQTARMLVSLLENGSQEEREYAKAHNVSLSPLFEGGHHFVLSVTTIATPHDGTTLVNMVDFTDRFFDLQKAVLEAAAVASNVPYTSQVYDFKLDQWGLRRQPGESFDHYFERLKRSPVWTSTDTARYDLSVSGAEKLNQWVQASPNTYYLSFSTERTYRGALTGNHYPELGMNAFSAVVCAPFLGSYRNPTLGIDDRWLENDGIVNTVSMNGPKRGSSDRIVPYDGTLKKGVWNDMGTYNVDHLEIIGVDPNPSFDIRAFYLRLAEQLASLLP",4380,120,27200,71900
"wt-L2 lipase (Bacillus sp. L2; A36P) (protein, recombinant from pET32(B)+ in E. coli BL21(DE3), Ni Sepharose purified) ASLRANDPPIVLLHGFTGWGREEMFGFKYWGGVRGDIEQWLNDNGYRTYTLAVGPLSSNWDRACEAYAQLVGGTVDYGAAHAAKHGHARFGRTYPGLLPELKRGGRIHIIAHSQGGQTARMLVSLLENGSQEEREYAKAHNVSLSPLFEGGHHFVLSVTTIATPHDGTTLVNMVDFTDRFFDLQKAVLEAAAVASNVPYTSQVYDFKLDQWGLRRQPGESFDHYFERLKRSPVWTSTDTARYDLSVSGAEKLNQWVQASPNTYYLSFSTERTYRGALTGNHYPELGMNAFSAVVCAPFLGSYRNPTLGIDDRWLENDGIVNTVSMNGPKRGSSDRIVPYDGTLKKGVWNDMGTYNVDHLEIIGVDPNPSFDIRAFYLRLAEQLASLLP",1340,127,94900,76300
"wt-L2 lipase (Bacillus sp. L2; A36V) (protein, recombinant from pET32(B)+ in E. coli BL21(DE3), Ni Sepharose purified) ASLRANDVPIVLLHGFTGWGREEMFGFKYWGGVRGDIEQWLNDNGYRTYTLAVGPLSSNWDRACEAYAQLVGGTVDYGAAHAAKHGHARFGRTYPGLLPELKRGGRIHIIAHSQGGQTARMLVSLLENGSQEEREYAKAHNVSLSPLFEGGHHFVLSVTTIATPHDGTTLVNMVDFTDRFFDLQKAVLEAAAVASNVPYTSQVYDFKLDQWGLRRQPGESFDHYFERLKRSPVWTSTDTARYDLSVSGAEKLNQWVQASPNTYYLSFSTERTYRGALTGNHYPELGMNAFSAVVCAPFLGSYRNPTLGIDDRWLENDGIVNTVSMNGPKRGSSDRIVPYDGTLKKGVWNDMGTYNVDHLEIIGVDPNPSFDIRAFYLRLAEQLASLLP",520,136,207000,81300
